Experimental findings from IntAct's records for PubMed 22056771 are described below.

This assay concerns the target T1, atg7_yeast ATG7 (UniProt P38862).
T1 sequence: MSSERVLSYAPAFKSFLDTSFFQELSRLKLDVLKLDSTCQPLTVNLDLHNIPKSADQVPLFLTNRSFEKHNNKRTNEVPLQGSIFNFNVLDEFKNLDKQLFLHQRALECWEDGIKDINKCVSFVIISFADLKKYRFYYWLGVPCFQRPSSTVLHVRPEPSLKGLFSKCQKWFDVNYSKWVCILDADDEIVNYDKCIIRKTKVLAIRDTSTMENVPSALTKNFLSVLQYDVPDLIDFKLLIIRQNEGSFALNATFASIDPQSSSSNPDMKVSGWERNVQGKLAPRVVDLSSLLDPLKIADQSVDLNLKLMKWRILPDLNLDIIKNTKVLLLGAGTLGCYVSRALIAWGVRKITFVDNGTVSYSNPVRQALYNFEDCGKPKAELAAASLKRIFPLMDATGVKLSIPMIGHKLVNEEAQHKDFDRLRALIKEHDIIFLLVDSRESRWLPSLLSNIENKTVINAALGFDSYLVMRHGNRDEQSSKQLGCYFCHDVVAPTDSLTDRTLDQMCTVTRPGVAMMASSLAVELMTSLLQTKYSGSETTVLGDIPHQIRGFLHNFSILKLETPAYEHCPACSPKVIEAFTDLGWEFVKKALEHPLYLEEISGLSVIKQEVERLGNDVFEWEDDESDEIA

As to “Microtubule-associated protein 1 light chain 3 beta (Homo sapiens) (from UniProt Q9GZQ8) K65Y”, the “effect of a mutation on the interaction” value is recorded as “increasing interaction”.
